The series concerns MS2 coat protein. The experiment in a line: apparent KD of MS2 coat protein; designed switch direction (-1 OFF switch, 1 ON switch): 1; higher = weaker reporter binding. The gist of the method:
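Designed RNA switches were transcribed on Illumina chips by stalled E. coli RNA polymerase and titrated with SNAP-549-labelled MS2 coat protein from 0.7 or 1.5 nM, doubling to 3 µM. Step length ran from 0.8–1.5 h at the lowest concentration to 10–20 min at the highest. The apparent KD is the median over clusters for each design, from curve-fitted normalised cluster fluorescence.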

Where [1] appears, read: input ligand: microRNA oligo, concentration not stated.
Where [2] appears, read: Eterna round: R95, input ligand: FMN 200 uM.
Where [3] appears, read: Eterna round: R95, input ligand: microRNA oligo, concentration not stated.
Where [4] appears, read: Eterna round: R95, input ligand: none.

Turning to “GCUCGCACGAUGACCCACAUGAGGAUCACCCAUGUGCAUGGGCAGGAUAUCUAGAUUAAGGAUGUAGAGAAGGGUUGAGCGAGC [SameState NG3 #26] (Eterna round: R96, puzzle: Same State NG 3)”, the “apparent KD of MS2 coat protein” value (input ligand: FMN 200 uM) was 1580 nM, the “apparent KD of MS2 coat protein” value under setting [1] is 192 nM and the “apparent KD of MS2 coat protein” value (input ligand: none) is 533 nM.

Consider “GUAGCAUACCGAGGAUAUUCAUAUACAUGAGGAUCACCCAUGUUUAUAGGCCGAUUACGGCCUUGGGAGAAGGCGGAAUGCUAC [Xeonanis - 20 Mod25] (Eterna round: R96, puzzle: Same State NG 2)”, for which the “apparent KD of MS2 coat protein” value is 11.7 nM (input ligand: FMN 200 uM), 9.52 nM under setting [1] and 17.6 nM (input ligand: none).

Consider “GCUCGCACGAUGACCGACAUGAGGAUCACCCAUGUGUGUCGGUAGGAUAUCUAUAUUAAGGAUUUAGAGAAGGGCCGAGCGAGC [SameState NG3 #21] (Eterna round: R96, puzzle: Same State NG 3)”, for which the “apparent KD of MS2 coat protein” value runs as follows: (input ligand: FMN 200 uM) 57.1 nM; under setting [1], 104 nM; (input ligand: none) 117 nM.

Regarding “CGUGGGUGGCUGGAGGAUAUUCGAGUGGUAACAUGAGGAUCACCCAUGUGUCGCGCGGUACAUGAGGAGAAGGCUGGCGGCCGGC (puzzle: Same State 2)”, the “apparent KD of MS2 coat protein” value runs as follows: under setting [2], 225 nM; under setting [3], 40.1 nM; under setting [4], 76.2 nM.

As for “CGUGAACAUGAGGAUCACCCAUGUGAAAAACAUAGAGGAUAUGUCACGUGAGUGUAAAAGACAGAAGGCUAUCGUG [Mod 3 of Round 1 starryjess' Mod pf Nando] (Eterna round: R96, puzzle: Same State 1)”, the “apparent KD of MS2 coat protein” value by setting is: (input ligand: FMN 200 uM) 38.1 nM; under setting [1], 78.3 nM; (input ligand: none) 77.6 nM.

Consider “GAGUAGUUGAAAGGAUAUGCAUUGUUAUAGAAUGCAGAAGGUUCUAACAUGAGGAUCACCCAUGUAGGACUAUUCCUGUGUAUC [Parity 80 - Jieux - Same State NG 1] (Eterna round: R96, puzzle: Same State NG 1)”, for which the “apparent KD of MS2 coat protein” value under setting [1] came to 7.83 nM.

Regarding “CGUAGGUAGCUGGAGGAUAUUCGAGUGGUAACAUGAGGAUCACCCAUGUGGAGUUAGGUACAUGAGGAGAAGGCUAGCUGCCUGC [JL-ss2-3.18 JL mod] (puzzle: Same State 2)”, the “apparent KD of MS2 coat protein” value by setting is: under setting [2], 10.4 nM; under setting [3], 23 nM; under setting [4], 27.4 nM.

For the sequence “GCCGCGUUUCGCGCCUACAUGAGGAUCACCCAUGUUUGUAGGCAGGAUAUCGCCCGCUUUGCGGGCGAGAAGGGCUGUUGUGGC [salish99_SSNG3_R04_020] (Eterna round: R96, puzzle: Same State NG 3)”, the “apparent KD of MS2 coat protein” value reads like this: (input ligand: FMN 200 uM) 59 nM; under setting [1], 38.8 nM; (input ligand: none) 55.5 nM.

With “UAGGAUCAACGAGGAUAUAAUAGGUUCAAUUUUUUAUAUUGUUUACAUGAGGAUCACCCAUGUUAUUAGAAGGCGUAUGGGAUU [JR_SSNG2_Sub084] (Eterna round: R96, puzzle: Same State NG 2)”, the “apparent KD of MS2 coat protein” value under setting [1] is 39.9 nM.

As to “GUGCUCGUGUGAGGAUAUGCUGCCGGGUCGGCUGCAGAAGGUACUAUUAUACAUGAGGAUCACCCAUGUCGCUUUUCUCCGGUG [salish99_SSNG1_r04_918] (Eterna round: R96, puzzle: Same State NG 1)”, the “apparent KD of MS2 coat protein” value under setting [1] is 34.1 nM.

On to “AAAUCAAGUAAAACAUGAGGAUCACCCAUGUGAGAAGCUUCCAAGGAUAUGGUAUGCAUGGAAACCCAGAAGGUGGUCAAAGCA [Eternabot solution 29] (Eterna round: R96, puzzle: Same State NG 3)”, for which the “apparent KD of MS2 coat protein” value (input ligand: FMN 200 uM) is 247 nM, the “apparent KD of MS2 coat protein” value under setting [1] was found to be 181 nM and the “apparent KD of MS2 coat protein” value (input ligand: none) was 272 nM.

Turning to “GGUGUACAUGAGGAUCACCCAUGUCGACCGCUCACAGGAUAUUUAUUACAAACUGGUAGCGGAGAAGGGUGAGGGC [Maarraar] (puzzle: Same State 1)”, the “apparent KD of MS2 coat protein” value runs as follows: under setting [2], 36.4 nM; under setting [3], 32.6 nM; under setting [4], 37.6 nM.

For “UUACUCCCUACAUGAGGAUCACCCAUGUUUUACAAACCCAACGAGGAUAUGUUGAGCGGAUGUAAGCAGAAGGCGUAGGGUAGA [Eternabot solution 37] (Eterna round: R96, puzzle: Same State NG 3)”, the “apparent KD of MS2 coat protein” value (input ligand: FMN 200 uM) was found to be 143 nM, the “apparent KD of MS2 coat protein” value under setting [1] was 16.7 nM and the “apparent KD of MS2 coat protein” value (input ligand: none) was 40 nM.

For the sequence “AGAGUGUAUCCACAGGAUAUGCGAGCUGACACAUGAGGAUCACCCAUGUAGUCCUAAAGGGCUGAGCAGAAGGGUGGUAAAGCUC [Raesvelave] (puzzle: Same State 2)”, the “apparent KD of MS2 coat protein” value runs as follows: under setting [2], 12.9 nM; under setting [3], 44.2 nM; under setting [4], 53.6 nM.

With “ACAAGCUUUUCUGCAUCGAAAGGUUGAUAACAUGAGGAUCACCCAUGUAAAUAUGAAAACGAUGCUCCUCGUCUUAU [JR_SHM208A_Sub095] (puzzle: Sensor for hsa-mir-208a)”, the “apparent KD of MS2 coat protein” value under setting [2] came to 37.3 nM, the “apparent KD of MS2 coat protein” value under setting [3] is 15.1 nM and the “apparent KD of MS2 coat protein” value under setting [4] amounted to 44.7 nM.

As to “UGGUACAUGGGAGGAUAUGGGUUGAUAACAUGAGGAUCACCCAUGUUAAAUAUGCCGAGAGGCAACUAGAAGGCCCAUGUACCU [JL SSNG1 3.00] (Eterna round: R96, puzzle: Same State NG 2)”, the “apparent KD of MS2 coat protein” value by setting is: (input ligand: FMN 200 uM) 28.5 nM; under setting [1], 380 nM; (input ligand: none) 644 nM.

Take “GGCCAGAGUCAAGGAUAUGCUACCGUUUCGGUAGCAGAAGGUGAUCACAUGAGGAUCACCCAUGUUUACUGCGAGAGUAUGGCC [JL SSNG1 3.67] (Eterna round: R96, puzzle: Same State NG 1)”: the “apparent KD of MS2 coat protein” value is, setting by setting: (input ligand: FMN 200 uM) 661 nM; under setting [1], 197 nM; (input ligand: none) 214 nM.

With “GGAGCCGGCACCGAGGAUAUUCAUAUUAAAACAUGAGGAUCACCCAUGUAGGCCAGAAGGCCUUGGGAGAAGGCGGACCGGCUCG [Xeonanis - 4] (Eterna round: R96, puzzle: Same State 2)”, the “apparent KD of MS2 coat protein” value is, setting by setting: (input ligand: FMN 200 uM) 27.4 nM; under setting [1], 165 nM; (input ligand: none) 287 nM.

For “AAAAGACAUGAGGAUCACCCAUGUAUGAAAAGUACAGGAUAUCACGAGCUAAGAAGCGAGUGAGAAGGGUGAAAAU [Sogedi] (puzzle: Same State 1)”, the “apparent KD of MS2 coat protein” value reads like this: under setting [2], 519 nM; under setting [3], 69.1 nM; under setting [4], 109 nM.

For the sequence “GGAGGACAUGAGGAUCACCCAUGUGGAUGGGCGCUAGGAUAUGCGAGAGGAGGGAGUGGAGCAGAAGGAGUGGGUU [JR_SS1_Sub043] (puzzle: Same State 1)”, under setting [3], the “apparent KD of MS2 coat protein” value was determined as 50.3 nM.

Consider “UGGUACAUGGGAGGAUAUCAUGUAGAGACAUGAGGAUCACCCAUGUAGAUGGCCGGUAACCGGGAUGAGAAGGCCCAUGUACCU [JL SSNG1 3.65] (Eterna round: R96, puzzle: Same State NG 2)”, for which the “apparent KD of MS2 coat protein” value is, setting by setting: (input ligand: FMN 200 uM) 161 nM; under setting [1], 56.3 nM; (input ligand: none) 151 nM.

Take “GGUUGUUAGUGAGGAUAUACGUACACUCUACAUGAGGAUCACCCAUGUUUUGCCCUUGAUUGUUGGUAGAAGGCACUUGGUUAU [JR_SSNG2_Sub050] (Eterna round: R96, puzzle: Same State NG 2)”: the “apparent KD of MS2 coat protein” value was determined as 40.7 nM (input ligand: FMN 200 uM), 84.7 nM under setting [1] and 87.3 nM (input ligand: none).

Consider “AGAUGUUAAUUAGGAUAUGGACACAUGAGGAUCACCCAUGUAACGAAGAUACGAUGUGGUCAAGUCUAGAAGGGAUCGCUAACA [SameState NG2 #74] (Eterna round: R96, puzzle: Same State NG 2)”, for which the “apparent KD of MS2 coat protein” value was 38.1 nM (input ligand: FMN 200 uM), 26.9 nM under setting [1] and 36.6 nM (input ligand: none).

Take “GGUGGGUUGCUACCGACACAUGAGGAUCACCCAUGUUUUGGGAAGGAUAUGGUACCUAUUUGGUACCAGAAGGUCCCGUUGGUG [salish99_SSNG3_r04_707] (Eterna round: R96, puzzle: Same State NG 3)”: the “apparent KD of MS2 coat protein” value was found to be 136 nM (input ligand: FMN 200 uM), 136 nM under setting [1] and 133 nM (input ligand: none).

Regarding “UUAAUGAUGUAAGGAUAUACAUGAGGAUUUCUCGUAGAAGGUACAGGACAUGAGGAUCACCCAUGUGUCGCUCCGUAGAGCGUA [JL SSNG1 1.08] (Eterna round: R96, puzzle: Same State NG 1)”, the “apparent KD of MS2 coat protein” value reads like this: (input ligand: FMN 200 uM) 349 nM; under setting [1], 414 nM; (input ligand: none) 525 nM.

Regarding “AAAAGACAUGAGGAUCACCCAUGUAAAAACAUAGGAGGAUAUGUCAUGAAAAAAGACUUGACAGAAGGCCUUUGUC [SS1 - 49] (Eterna round: R96, puzzle: Same State 1)”, the “apparent KD of MS2 coat protein” value under setting [1] worked out at 156 nM.

Take “GGCAGGUGCAGGCUUGCUUGCACCUGGAAACAUGAGGAUCACCCAUGUUUGGGACAAGCUUUGCUCCUCGUCUUGUC [JL ViennaUCT Isusreraar mod 2] (puzzle: Sensor for hsa-mir-208a)”: the “apparent KD of MS2 coat protein” value reads like this: under setting [2], 28.2 nM; under setting [3], 36.5 nM; under setting [4], 36.7 nM.

As for “AUUAUUUAUGCAGGAUAUGAUUAACAUGAGGAUCACCCAUGUGGUGUUGUGAGUAAGGAGAGUGAUCAGAAGGGCAUUUUUGUU [JMF's solution 53] (Eterna round: R96, puzzle: Same State NG 2)”, the “apparent KD of MS2 coat protein” value was 992 nM (input ligand: FMN 200 uM), 438 nM under setting [1] and 657 nM (input ligand: none).

The record behind these values is the supplement of paper PMC9170038.
